± gives the uncertainty stated by the source.
Assay: self-splicing fitness, log relative to wild type (ln ratio); higher = more splicing; Tetrahymena group I intron in knt gene, E. coli kanamycin selection, DiMSum; sequences stand for … in CUCUCU…GGAGGGAAAAGUUAUCAGGCAUGCACCUGGUAGCUAGUCUUUAAACCAAUAGAUUGCAUCGGUUUAAAAGGCAAGACCGUCAAAUUGCGGGAAAGGGGUCAACAGCCGUUCAGUACCAAGUCUCAGGGGAAACUUUGAGAUGGCCUUGCAAAGGGUAUGGUAAUAAGCUGACGGACAUGGUCCUAACCACGCAGCCAAGUCCUAAGUCAACAGAUCUUCUGUUGAUAUGGAUGCAGUUCACAGACUAAAUGUCGGUCGGGGAAGAUGUAUUCUUCUCAUAAGAUAUAGUCGGACCUCUCCUUAAUGGGAGCUAGCGGAUGAAGUGAUGCAACACUGGAGCCGCUGGGAACUAAUUUGUAUGCGAAAGUAUAUUGAUUAGUUUUGGAGUACUCGUGGUCG
Procedure, shortened: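 DiMSum derived fitness as the error-weighted combination of fold changes across replicates, kanamycin versus no kanamycin, normalised to wild type. E. coli BL21(DE3) held the library, which randomised all eight P1ex-region intron nucleotides within the knt kanamycin-resistance gene on pET-22b(+). Six replicate transformations grew overnight at 37°C or 30°C on LB agar with or without 25 μg/mL kanamycin, also containing 100 μg/mL carbenicillin, 50 μM IPTG and 0.2% rhamnose, and pooled colonies were amplicon-sequenced on an Illumina HiSeq 2500.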

Row | Sequence | self-splicing fitness (ln) (30 °C) | self-splicing fitness (ln) (37 °C)
1 | GUCCAGCAAUAUUACGACAG | -3.57 ± 0.36 | -1.93 ± 0.41
2 | GUCCAGCAAUAUUACGAGGA | -2.98 ± 0.27 | -2.64 ± 0.3
3 | GUCCAGCAAUAUUACGAGGU | -2.34 ± 0.11 | -1.34 ± 0.13
4 | GUCCAGCAAUAUUACGAGUC | -1.23 ± 0.097 | -0.164 ± 0.098
5 | GUCCAGCAAUAUUACGAGUU | -1.98 ± 0.095 | -1.26 ± 0.091
6 | GUCCAGCAAUAUUACGCGCG | -1.58 ± 0.093 | -0.665 ± 0.096
7 | GUCCAGCAAUAUUACGCGGU | -3.19 ± 0.24 | -2.14 ± 0.17
8 | GUCCAGCAAUAUUACGCUGC | -1.85 ± 0.34 | 0.221 ± 0.36
9 | GUCCAGCAAUAUUACGCUUC | -1.38 ± 0.083 | -0.138 ± 0.11
10 | GUCCAGCAAUAUUACGGAGC | -2.17 ± 0.087 | -2.68 ± 0.088
11 | GUCCAGCAAUAUUACGGAUC | -4.49 ± 0.28 | -3.62 ± 0.27
12 | GUCCAGCAAUAUUACGGCUA | -0.25 ± 0.068 | 0.143 ± 0.073
13 | GUCCAGCAAUAUUACGGGGU | -3.62 ± 0.19 | -2.65 ± 0.15
14 | GUCCAGCAAUAUUACGUAUC | -0.611 ± 0.096 | -0.264 ± 0.11
15 | GUCCAGCAAUAUUACGUGCG | -1.15 ± 0.085 | -1.14 ± 0.12
16 | GUCCAGCAAUAUUACGUGGU | -1.61 ± 0.059 | -1.03 ± 0.064
17 | GUCGAGCAAUAUUACGAAGC | -2.37 ± 0.19 | -1.85 ± 0.23
18 | GUCGAGCAAUAUUACGACAC | -0.476 ± 0.2 | -1.13 ± 0.17
19 | GUCGAGCAAUAUUACGACCA | – | -0.961 ± 0.42
20 | GUCGAGCAAUAUUACGACCG | -1.69 ± 0.5 | –
21 | GUCGAGCAAUAUUACGAGGC | -3.01 ± 0.21 | -3.06 ± 0.31
22 | GUCGAGCAAUAUUACGCGAU | -3.36 ± 0.27 | –
23 | GUCGAGCAAUAUUACGCGUC | -1.43 ± 0.15 | -2.49 ± 0.2
24 | GUCGAGCAAUAUUACGCUAA | – | -1.5 ± 0.2
25 | GUCGAGCAAUAUUACGGACA | -1.8 ± 0.49 | -1.95 ± 0.47

Row | Sequence | self-splicing fitness (ln) (30 °C) | self-splicing fitness (ln) (37 °C)
26 | GUCGAGCAAUAUUACGGCAA | -3.13 ± 0.31 | -1.76 ± 0.29
27 | GUCGAGCAAUAUUACGGUUA | -2.03 ± 0.49 | 0.142 ± 0.25
28 | GUCGAGCAAUAUUACGUCGA | -3.97 ± 0.42 | -2.65 ± 0.44
29 | GUCGAGCAAUAUUACGUGCA | -2.29 ± 0.22 | -0.701 ± 0.17
30 | GUCGAGCAAUAUUACGUUGU | – | -2.78 ± 0.37
31 | GUCUAGCAAUAUUACGAACU | -1.9 ± 0.2 | -1.12 ± 0.19
32 | GUCUAGCAAUAUUACGACGC | -0.0791 ± 0.12 | 0.364 ± 0.14
33 | GUCUAGCAAUAUUACGACGU | -0.253 ± 0.15 | 0.696 ± 0.17
34 | GUCUAGCAAUAUUACGACUC | -0.625 ± 0.13 | -0.52 ± 0.15
35 | GUCUAGCAAUAUUACGAGCU | -2.17 ± 0.33 | -0.962 ± 0.23
36 | GUCUAGCAAUAUUACGAUUA | -0.177 ± 0.17 | 0.177 ± 0.12
37 | GUCUAGCAAUAUUACGCAGU | -1.25 ± 0.13 | 0.0079 ± 0.15
38 | GUCUAGCAAUAUUACGCGGG | -3.1 ± 0.19 | -1.98 ± 0.17
39 | GUCUAGCAAUAUUACGCUCC | -1.44 ± 0.18 | 0.66 ± 0.2
40 | GUCUAGCAAUAUUACGCUGG | -2.84 ± 0.36 | -2.2 ± 0.27
41 | GUCUAGCAAUAUUACGCUUU | -0.366 ± 0.066 | -0.192 ± 0.08
42 | GUCUAGCAAUAUUACGGAUG | -1.93 ± 0.2 | 0.0916 ± 0.19
43 | GUCUAGCAAUAUUACGGGAU | -4.48 ± 0.42 | -3.39 ± 0.42
44 | GUCUAGCAAUAUUACGGUGU | -0.578 ± 0.046 | -0.0594 ± 0.06
45 | GUCUAGCAAUAUUACGUAGG | -0.837 ± 0.14 | -0.942 ± 0.21
46 | GUCUAGCAAUAUUACGUCCG | -2.96 ± 0.28 | -0.525 ± 0.19
47 | GUCUAGCAAUAUUACGUCGA | -2.12 ± 0.14 | -0.957 ± 0.13
48 | GUCUAGCAAUAUUACGUUUU | -1.2 ± 0.08 | -0.759 ± 0.084
49 | GUGAAGCAAUAUUACGACCA | -0.647 ± 0.18 | 0.84 ± 0.19
50 | GUGAAGCAAUAUUACGAGUG | -0.702 ± 0.094 | -0.702 ± 0.13

Row | Sequence | self-splicing fitness (ln) (30 °C) | self-splicing fitness (ln) (37 °C)
51 | GUGAAGCAAUAUUACGAGUU | -2.5 ± 0.12 | -1.14 ± 0.15
52 | GUGAAGCAAUAUUACGAUCG | -0.499 ± 0.097 | 0.218 ± 0.1
53 | GUGAAGCAAUAUUACGCAAG | -0.985 ± 0.09 | 0.0285 ± 0.1
54 | GUGAAGCAAUAUUACGCAUG | -1.5 ± 0.15 | -1.23 ± 0.18
55 | GUGAAGCAAUAUUACGCGAA | -1.56 ± 0.11 | -0.479 ± 0.12
56 | GUGAAGCAAUAUUACGCGCU | -2.31 ± 0.16 | -1.47 ± 0.13
57 | GUGAAGCAAUAUUACGGAAG | -1.94 ± 0.19 | 0.825 ± 0.21
58 | GUGAAGCAAUAUUACGGAGC | -4.68 ± 0.46 | -1.38 ± 0.16
59 | GUGAAGCAAUAUUACGGCUA | -0.323 ± 0.1 | 0.322 ± 0.12
60 | GUGAAGCAAUAUUACGUAUU | -1.21 ± 0.12 | 0.0695 ± 0.12
61 | GUGAAGCAAUAUUACGUCAA | -1.07 ± 0.077 | -0.245 ± 0.084
62 | GUGAAGCAAUAUUACGUCAG | -0.462 ± 0.076 | -0.996 ± 0.08
63 | GUGAAGCAAUAUUACGUCGU | -0.585 ± 0.11 | -0.777 ± 0.12
64 | GUGAAGCAAUAUUACGUGAU | -1.97 ± 0.12 | -1.03 ± 0.14
65 | GUGAAGCAAUAUUACGUGCU | -1.99 ± 0.091 | -0.974 ± 0.1
66 | GUGAAGCAAUAUUACGUGGA | -3.07 ± 0.13 | -1.24 ± 0.15
67 | GUGAAGCAAUAUUACGUGUU | -2.74 ± 0.1 | -1.23 ± 0.085
68 | GUGAAGCAAUAUUACGUUCG | -0.236 ± 0.095 | -0.797 ± 0.1
69 | GUGCAGCAAUAUUACGACGG | – | -2.73 ± 0.34
70 | GUGCAGCAAUAUUACGAGCC | -1.65 ± 0.2 | –
71 | GUGCAGCAAUAUUACGCAGG | -2.59 ± 0.12 | -3.12 ± 0.18
72 | GUGCAGCAAUAUUACGCGCU | -3.16 ± 0.48 | -1.77 ± 0.36
73 | GUGCAGCAAUAUUACGCUCA | -1.31 ± 0.1 | -0.388 ± 0.11
74 | GUGCAGCAAUAUUACGCUGC | -2.77 ± 0.18 | -2.14 ± 0.35
75 | GUGCAGCAAUAUUACGGACU | -1.28 ± 0.11 | -0.884 ± 0.14

Row | Sequence | self-splicing fitness (ln) (30 °C) | self-splicing fitness (ln) (37 °C)
76 | GUGCAGCAAUAUUACGGAUA | -1.76 ± 0.15 | -1.79 ± 0.19
77 | GUGCAGCAAUAUUACGGCUC | -0.0701 ± 0.085 | -0.129 ± 0.1
78 | GUGCAGCAAUAUUACGGGAU | -1.66 ± 0.066 | -1.32 ± 0.081
79 | GUGCAGCAAUAUUACGGUAA | -1.5 ± 0.18 | 0.218 ± 0.14
80 | GUGCAGCAAUAUUACGGUAG | -1.05 ± 0.057 | -0.428 ± 0.074
81 | GUGCAGCAAUAUUACGGUGU | -3.08 ± 0.11 | -1.74 ± 0.12
82 | GUGCAGCAAUAUUACGUAAU | -0.833 ± 0.06 | 0.129 ± 0.079
83 | GUGCAGCAAUAUUACGUAGA | -2.02 ± 0.087 | -0.647 ± 0.11
84 | GUGCAGCAAUAUUACGUCAC | – | -2.14 ± 0.21
85 | GUGGAGCAAUAUUACGACGU | -1.15 ± 0.14 | 0.0174 ± 0.16
86 | GUGGAGCAAUAUUACGAUCA | -2.19 ± 0.49 | -0.101 ± 0.2
87 | GUGGAGCAAUAUUACGAUCU | -2.68 ± 0.15 | -2.6 ± 0.22
88 | GUGGAGCAAUAUUACGCACA | -0.729 ± 0.22 | -0.814 ± 0.33
89 | GUGGAGCAAUAUUACGCCGA | -3.41 ± 0.43 | -1.25 ± 0.28
90 | GUGGAGCAAUAUUACGCGUC | -2.82 ± 0.35 | -1.76 ± 0.47
91 | GUGGAGCAAUAUUACGGAAC | – | -0.66 ± 0.45
92 | GUGGAGCAAUAUUACGGACC | -1.56 ± 0.38 | –
93 | GUGGAGCAAUAUUACGGAGU | -3.56 ± 0.31 | -2.25 ± 0.29
94 | GUGGAGCAAUAUUACGGCGC | -1.42 ± 0.27 | -0.0496 ± 0.26
95 | GUGGAGCAAUAUUACGGGGC | -3.48 ± 0.48 | -1.93 ± 0.31
96 | GUGGAGCAAUAUUACGUGCG | -2.23 ± 0.15 | -2.9 ± 0.29
97 | GUGGAGCAAUAUUACGUGCU | -3.68 ± 0.2 | -3.09 ± 0.4
98 | GUGGAGCAAUAUUACGUGGG | -2.28 ± 0.13 | -2.7 ± 0.33
